From patent publication US20050153894

Legend:
[1] = biological target: cyclin D1 (human), P24385; assay: competition; conditions: modification not given
cyclin A (human), P20248 = assay: competition; conditions: modification not given
Chain of cyclin A (human), P20248 (P20248 whole entry): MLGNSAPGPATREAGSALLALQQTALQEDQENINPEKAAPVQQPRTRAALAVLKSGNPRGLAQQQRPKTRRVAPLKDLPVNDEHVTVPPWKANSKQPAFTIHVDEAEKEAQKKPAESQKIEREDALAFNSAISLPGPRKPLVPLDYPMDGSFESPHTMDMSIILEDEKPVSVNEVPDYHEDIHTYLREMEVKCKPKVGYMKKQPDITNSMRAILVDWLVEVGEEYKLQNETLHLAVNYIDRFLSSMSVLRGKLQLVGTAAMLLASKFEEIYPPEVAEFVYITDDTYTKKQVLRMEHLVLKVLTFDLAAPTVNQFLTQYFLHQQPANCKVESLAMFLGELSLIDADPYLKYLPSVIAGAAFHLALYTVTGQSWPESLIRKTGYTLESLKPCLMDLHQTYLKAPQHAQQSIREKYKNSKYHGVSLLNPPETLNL

Chain of cyclin D1 (human), P24385 (P24385 whole entry): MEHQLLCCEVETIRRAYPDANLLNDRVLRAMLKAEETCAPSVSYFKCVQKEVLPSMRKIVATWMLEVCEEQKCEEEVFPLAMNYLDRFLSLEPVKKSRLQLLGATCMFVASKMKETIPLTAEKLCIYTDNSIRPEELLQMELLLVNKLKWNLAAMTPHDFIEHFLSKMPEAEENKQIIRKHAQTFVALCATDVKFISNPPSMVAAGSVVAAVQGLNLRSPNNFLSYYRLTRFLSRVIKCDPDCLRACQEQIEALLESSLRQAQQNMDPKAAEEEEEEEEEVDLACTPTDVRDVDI

HSKRRLDL gave an IC50 [1] greater than 200 µM.

Work on PVKRRLDL [E2F1 PVKRRLDL] yielded an IC50 [1] greater than 100 µM.

RRLNF [Ac-RRLNF-NH2] gave an IC50 (cyclin A (human), P20248) of 8.15 µM.

With HSKRRLFG the IC50 [1] was greater than 200 µM.
